Article PMC8216470

Assays:
Assay in all cases: MST
Details in all cases: MST with Cy5-labelled tRNA; buffer, salt, pH and temperature not in the material (protein storage: 10 mM Tris-HCl pH 8.0, 200 mM NaCl, 0.5 mM TCEP)
[1] = system: ADAT2;ADAT3 WT (Mus musculus;Mus musculus)
[2] = system: ADAT2;ADAT3-Δloop (Mus musculus;Mus musculus)
TadA (Escherichia coli) = system: TadA (Escherichia coli)
[3] = system: ADAT2;ADAT3-ΔN (Mus musculus;Mus musculus)
[4] = system: ADAT2;ADAT3-V128I (Mus musculus;Mus musculus)
[5] = system: ADAT2;ADAT3-V128L (Mus musculus;Mus musculus)
[6] = system: ADAT2;ADAT3-V128M (Mus musculus;Mus musculus)

| Substance | Kd [1] [µM] | Kd [2] [µM] | Kd (TadA (Escherichia coli)) [µM] | Kd [3] [µM] | Kd [4] [µM] | Kd [5] [µM] | Kd [6] [µM] |
| --- | --- | --- | --- | --- | --- | --- | --- |
| tRNAAla(AGC) | 8 | 6.7 | – | – | – | – | – |
| tRNAArg(ACG) | 3.7 | 6.5 | 6.6 | – | – | – | – |
| tRNAGly(CCC) | 3 | – | – | 35.8 | – | – | – |
| tRNAVal(AAC) | 3.5 | 6.7 | – | 44.5 | 3.3 | 4.2 | 2.5 |
